Measured values published in US20090042805A1 (CHIESI FARMACEUTICI S P A, published 2009).
* marks the point of attachment. Quinaldoyl = O=C(c1ccc2ccccc2n1)*

B1: Ac-LDESD-cho (peptide)
peptide: Ac-LDESD-aldehyde
SMILES: CC(=O)N[C@@H](CC(C)C)C(=O)N[C@@H](CC(=O)O)C(=O)N[C@@H](CCC(=O)O)C(=O)N[C@@H](CO)C(=O)N[C@H](C=O)CC(=O)O
B2: Ac-FDESD-cho (peptide)
peptide: Ac-FDESD-aldehyde
SMILES: CC(=O)N[C@@H](Cc1ccccc1)C(=O)N[C@@H](CC(=O)O)C(=O)N[C@@H](CCC(=O)O)C(=O)N[C@@H](CO)C(=O)N[C@H](C=O)CC(=O)O
B3: Ac-LDEKD-cho (peptide)
peptide: Ac-LDEKD-aldehyde
SMILES: CC(=O)N[C@@H](CC(C)C)C(=O)N[C@@H](CC(=O)O)C(=O)N[C@@H](CCC(=O)O)C(=O)N[C@@H](CCCCN)C(=O)N[C@H](C=O)CC(=O)O
B4: Ac-LDEGD-cho (peptide)
peptide: Ac-LDEGD-aldehyde
SMILES: CC(=O)N[C@@H](CC(C)C)C(=O)N[C@@H](CC(=O)O)C(=O)N[C@@H](CCC(=O)O)C(=O)NCC(=O)N[C@H](C=O)CC(=O)O
B5: Ac-LDEAD-cho (peptide)
peptide: Ac-LDEAD-aldehyde
SMILES: CC(=O)N[C@@H](CC(C)C)C(=O)N[C@@H](CC(=O)O)C(=O)N[C@@H](CCC(=O)O)C(=O)N[C@@H](C)C(=O)N[C@H](C=O)CC(=O)O
B6: Ac-VDEAD-cho (peptide)
peptide: Ac-VDEAD-aldehyde
SMILES: CC(=O)N[C@H](C(=O)N[C@@H](CC(=O)O)C(=O)N[C@@H](CCC(=O)O)C(=O)N[C@@H](C)C(=O)N[C@H](C=O)CC(=O)O)C(C)C
B7: Ac-VDESD-cho (peptide)
peptide: Ac-VDESD-aldehyde
SMILES: CC(=O)N[C@H](C(=O)N[C@@H](CC(=O)O)C(=O)N[C@@H](CCC(=O)O)C(=O)N[C@@H](CO)C(=O)N[C@H](C=O)CC(=O)O)C(C)C

molecular target: T1, Human recombinant caspase-2 (human, UniProt P42575 170-452, limits assumed); experiment: cell-based or functional assay
T1 sequence (looked up): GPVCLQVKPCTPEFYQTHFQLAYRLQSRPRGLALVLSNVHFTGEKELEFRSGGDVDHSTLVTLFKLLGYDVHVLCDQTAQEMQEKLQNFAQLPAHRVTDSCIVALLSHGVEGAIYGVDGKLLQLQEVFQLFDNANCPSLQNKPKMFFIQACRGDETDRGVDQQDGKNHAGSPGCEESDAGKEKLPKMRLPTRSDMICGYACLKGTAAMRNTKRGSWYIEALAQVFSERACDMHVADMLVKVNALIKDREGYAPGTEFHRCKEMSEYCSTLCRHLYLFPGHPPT

Binder | IC50 (nM), inhibition of Ac-VDVAD-AMC cleavage by human recombinant caspase-2 [nM]
Ac-VDVAD-aldehyde [Ac-VDVAD-cho] | 75
B1 | 300
B2 | 800
B3 | 300
B4 | 430
B5 | 85
Ac-VDEGD-aldehyde [VDEGD pentapeptidic-based inhibitor] | 260
B6 | 85
B7 | 175

molecular target: T2, Human recombinant caspase-6 (human, UniProt P55212 24-293, limits assumed); experiment: cell-based or functional assay
T2 sequence (looked up): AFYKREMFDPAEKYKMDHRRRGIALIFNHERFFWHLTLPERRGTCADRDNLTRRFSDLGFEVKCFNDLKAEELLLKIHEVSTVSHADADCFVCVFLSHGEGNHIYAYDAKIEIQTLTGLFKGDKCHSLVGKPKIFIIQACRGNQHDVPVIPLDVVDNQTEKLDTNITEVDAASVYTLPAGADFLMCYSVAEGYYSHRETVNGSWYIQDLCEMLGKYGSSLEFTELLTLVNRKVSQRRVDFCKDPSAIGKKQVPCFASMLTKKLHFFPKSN

Binder | IC50, inhibition of Ac-VEID-AMC cleavage by human recombinant caspase-6 [µM]
B5 | ~2

molecular target: T1, Human recombinant caspase-2; experiment: cell-based or functional assay; remark: another data set of the same source

Binder | IC50, inhibition of caspase-2 [µM]
Quinaldoyl-VDVAD-{CH2O(2,6-difluorophenyl)} [Qco-VDVAD-CH2O(2,6-difluorophenyl)] | 0.08
